Test results published in patent US20170335333.

Substance: Microcin immunity protein (mcsI)
- OD600 growth of E. coli Top10 after induction with 0.125% v/v L-arabinose (Microcin S peptide): the OD600 reading was restored significantly compared to the un-induced and control cultures
- OD600 growth of E. coli Top10 after induction with 0.125% v/v L-arabinose (McsS-YebF fusion peptide): the OD600 reading was restored significantly compared to the un-induced and control cultures
